{"source": "patent US7387779B2", "about": "“Anti-angiogenic proteins and fragments and methods of use thereof” (Beth Israel Deaconess Medical Center, priority 1998, dated 2008)", "molecules": {"B1": {"name": "Tum-1: residues 54 to 244 of Tumstatin, lacking the N-terminal 53 amino acids (SEQ ID NO:22) (protein)", "chain": "QRAHGQDLGTLGSCLQRFTTMPFLFCNVNDVCNFASRNDYSYWLSTPALMPMNMAPITGRALEPYISRCTVCEGPAIAIAVHSQTTDIPPCPHGWISLWKGFSFIMFTSAGSEGTGQALASPGSCLEEFRASPFLECHGRGTCNYYSNSYSFWLASLNPERMFRKPIPSTVKAGELEKIISRCQVCMKKRH", "modifications": "Tum-1 (Tumstatin N-53) (amino acids 54-244 of SEQ ID NO10)"}, "B2": {"name": "Tumstatin-44-131: residues 44 to 131 of full-length Tumstatin (SEQ ID NO:33) (protein)", "chain": "FSFLFVQGNQRAHGQDLGTLGSCLQRFTTMPFLFCNVNDVCNFASRNDYSYWLSTPALMPMNMAPITGRALEPYISRCTVCEGPAIAI", "modifications": "Tumstatin-45-132 (amino acids 45-132 of SEQ ID NO10)"}, "B3": {"name": "Tumstatin: NC1 domain of the α3 chain of type IV collagen, residues 1-244 (SEQ ID NO:10) (protein, listed as Homo sapiens)", "chain": "GLKGKRGDSGSPATWTTRGFVFTRHSQTTAIPSCPEGTVPLYSGFSFLFVQGNQRAHGQDLGTLGSCLQRFTTMPFLFCNVNDVCNFASRNDYSYWLSTPALMPMNMAPITGRALEPYISRCTVCEGPAIAIAVHSQTTDIPPCPHGWISLWKGFSFIMFTSAGSEGTGQALASPGSCLEEFRASPFLECHGRGTCNYYSNSYSFWLASLNPERMFRKPIPSTVKAGELEKIISRCQVCMKKRH"}, "B4": {"name": "Canstatin: NC1 domain of the α2 chain of Type IV collagen (SEQ ID NO:6) (protein, listed as Homo sapiens)", "chain": "VSIGYLLVKHSQTDQEPMCPVGMNKLWSGYSLLYFEGQEKAHNQDLGLAGSCLARFSTMPFLYCNPGDVCYYASRNDKSYWLSTTAPLPMMPVAEDEIKPYISRCSVCEAPAIAIAVHSQDVSIPHCPAGWRSLWIGYSFLMHTAAGDEGGGQSLVSPGSCLEDFRATPFIECNGGRGTCHYYANKYSFWLTTIPEQSFQGSPSADTLKAGLIRTHISRCQVCMKNL"}, "B5": {"name": "endostatin: tumor associated angiogenesis inhibitor used as comparator (protein, UniProt P39060 1572-1754, looked up)", "Endostatin": "HSHRDFQPVLHLVALNSPLSGGMRGIRGADFQCFQQARAVGLAGTFRAFLSSRLQDLYSIVRRADRAAVPIVNLKDELLFPSWEALFSGSEGPLKPGARIFSFDGKDVLRHPTWPQKSVWHGSDPNGRRLTESYCETWRTEAPSATGQASSLLGGRLLGQSAASCHHAYIVLCIENSFMTASK", "modifications": "Endostatin"}}, "key": {"[1]": {"test_system": "C-PAE cells", "assay": "Cell cycle analysis (propidium iodide, flow cytometry)", "type": "cell-based, bovine", "conditions": "for percentage of cells in G0/G1 phase: bFGF control 53.4%; for G1 (cell cycle arrest assay): Table 4", "description": "To further evaluate the mechanism of T3 peptide on endothelial cell proliferation, the effect of T3 peptide on cell cycle progression was analyzed. In the growth arrested and contact inhibited cells (0 hour), 4.1% of cells were in S phase. […] This was true even at a maximal dosage of 100 μg/ml. The effect of the T3 peptide was dose-dependent, however, with the percentage of cells in S phase at 21.4% at 10 μg/ml, and 20.5% at 25 μg/ml. The percentage of cells in G0/G1 phase was 88.3% at 0 hour, 53.4% for the bFGF control, and 57.6%, 57.6% and 71.0% for treatments with T1, T6 and T3 peptide, respectively. […] Apoptotic Activity: Peptides T2, T3, T4, T5 and T6 (10 μg/ml concentration) were tested for their effect of viability of C-PAE cells using the MTT assay, as described in Examples 32 and 36 above. The results are shown in FIG. 43D, which is a histogram showing cell viability as measured at OD595 (y-axis), and treatments with the synthetic peptides (x-axis). […] TNF-α (100 ng/ml) was used to serve as a positive control in inducing endothelial cell apoptosis.\nThe effect of Tumstatin-44-131 and Tum-5-125-C-A on the cell cycle were assayed similarly to Example 4 above. Briefly, C-PAE cells were growth arrested by contact inhibition for 48 hours. The cells, at 10^5 cells per well, were then harvested and plated into a 12-well plate coated with fibronectin in 5% FCS and either recombinant Tumstatin-44-131 or Tum-5-125-C-A. After 21 hours, the cells were harvested and fixed in 70% ice-cold ethanol. The fixed cells were rehydrated a room temperature for 30 minutes in PBS containing 2% FCS and 0.1% Tween-20, centrifuged and resuspended in 0.5 ml of the same buffer. RNase (5 μg/ml) digestion was done at 37° C. for one hour, followed by staining with propidium iodide (5 μg/ml). The cells were then counted using an EPICS XL-MCL flow cytometer (Beckman-Coulter Instruments, Fullerton, Calif., USA)."}, "[2]": {"test_system": "C-PAE cells", "assay": "Total protein synthesis, 35S-methionine incorporation", "type": "cell-based, bovine", "description": "Primary human renal epithelial cells (HRE) were purchased from Clonetics (San Diego, Calif., USA) and were maintained in REGM (Clonetics Corp.). Other cell lines were obtained and maintained as described above. Cells were serum-starved for 24 hrs (0.5% FCS), stimulated with 10% FCS in the presence of T3 peptide, Tumstatin-44-131, endostatin or rapamycin for 12-24 hours. After pre-incubation of cells in methionine-free media for 1 hour, cells were labeled with ^35S-methionine for 1 hour and incorporation of radioactivity into trichloracetic acid precipitates was analyzed (Sudhakar, A. et al., 2000, Biochem. 39:12929-38; Maeshima, Y. et al., 1996, J. Amer. Soc. Nephrol. 7:2219-29). ANOVA with a one-tailed Student's t test was used to identify significant differences in multiple comparisons in the present study. A level of P<0.05 was considered statistically significant."}, "[3]": {"test_system": "C-PAE cells", "assay": "Cell cycle analysis (propidium iodide, flow cytometry)", "type": "cell-based, bovine", "conditions": "10% FBS"}, "[4]": {"test_system": "PC-3 tumors", "assay": "PC-3 xenograft in athymic nude NCRNU mice (Example 46)", "type": "in vivo", "description": "Tumstatin-44-131 was also tested for its ability to suppress tumor growth. Male athymic nude NCRNU mice, of 5-6 weeks of age and about 25 g, were implanted with […] approximately 2×10^6 PC-3 (prostate cancer carcinoma) cells into the dorsal subcutis. […] The tumors were allowed to grow to about 50 mm^3, and animals were then pair-matched into groups of 6 mice. Initial doses of protein or vehicle (PBS, control) were given on the day of pair-matching (Day 1). Tumstatin-44-131, Tum-5-125-C-A, or human endostatin in sterile PBS was intraperitoneally injected daily b.i.d. at doses ranging from 1 to 20 mg/kg for 20 days. Control animals received injection of PBS vehicle. In one treatment, continuous subcutaneous delivery of Tumstatin-44-131 was done using surgically implanted Alzet mini-pumps. The mice were weighed twice weekly, and tumor measurements were taken, starting on Day 1. Estimated mean tumor volumes were calculated, and at Day 21, the mice were weighed, sacrificed, and their tumors excised and examined by light microscopy and CD31 immunostaining. The mean treated tumor weight was divided by the mean control tumor weight was subtracted from one, and expressed as a percentage to give the tumor growth inhibition for each group."}, "[5]": {"test_system": "PC-3 cells", "assay": "Annexin V-FITC apoptosis assay", "type": "cell-based, human", "description": "Annexin V-FITC Labeling. In order to establish apoptosis as the potential mode of action for Canstatin, Annexin V-FITC was used to label externalized phosphatidylserine (PS), to assess apoptotic cells. 0.5×10^6 C-PAE cells, PC-3, 786-O and HEK 293 cells were added to each well of a 6 well tissue culture plate in 10% FBS supplemented DMEM (BioWhittaker, Walkersville, Md., USA) overnight. The next day, fresh medium was added to all wells together with 40 ng/ml TNF-α (positive control) or 15 μg/ml Canstatin. Control cells received an equal volume of PBS. After 24 hours of treatment, medium containing detached cells was collected and attached cells were trypsinized and combined with detached cells and centrifuged at 3,000×g. Cells were then washed and phosphatidyl-serine externalization (an early apoptotic indicator) was measured by labeling with FITC-labeled annexin V (Clontech, Palo Alto, Calif., USA) according to the manufacturer's instructions. Annexin V-FITC-labeled cells were counted using a FAC Star Plus flow cytometer (Becton-Dickenson, Waltham, Mass., USA). For each treatment 15,000 cells were counted and stored in listmode. […] Annexin V-FITC labeled cells were counted using a FACStar Plus flow cytometer (Becton-Dickinson, Waltham, Mass., USA). For each treatment, 15,000 cells were counted and stored in listmode."}}, "data": [{"molecule": "GLKGKRGDSGSPATWTTRGF [T1]", "values": [{"measurement": "percentage of cells in S phase", "setting": "[1]; bFGF 24 hours (control 22.1%), T1 or T6, maximal dosage of 100 μg/ml", "result": 22.3, "unit": "%"}, {"measurement": "percentage of cells in G0/G1 phase", "setting": "[1]", "result": 57.6, "unit": "%"}]}, {"molecule": "LQRFTTMPFLFCNVNDVCNF [T3]", "values": [{"measurement": "percentage of cells in S phase", "setting": "[1]; bFGF 24 hours (control 22.1%), 50 μg/ml", "result": 13.8, "unit": "%"}, {"measurement": "percentage of cells in S phase", "setting": "[1]; bFGF 24 hours, 10 μg/ml", "result": 21.4, "unit": "%"}, {"measurement": "percentage of cells in S phase", "setting": "[1]; bFGF 24 hours, 25 μg/ml", "result": 20.5, "unit": "%"}, {"measurement": "percentage of cells in G0/G1 phase", "setting": "[1]", "result": 71.0, "unit": "%"}, {"measurement": "maximal inhibition of protein synthesis", "setting": "[2]; 22.7 μM", "result": "about 45%"}]}, {"molecule": "B1", "values": [{"measurement": "G1 (cell cycle arrest assay)", "setting": "[1]", "result": 5, "unit": "µg"}, {"measurement": "IC50, inhibition of cell cycle progression", "setting": "[3]", "result": "about 5 μg/ml"}]}, {"molecule": "B2", "values": [{"measurement": "percentage of cells in S phase", "setting": "[1]; 5% FCS 21 hours (control 21.5%), dose not given", "result": 6.0, "unit": "%"}, {"measurement": "percentage of cells in S phase", "setting": "[1]; 5% FCS 21 hours, 1 μg/ml", "result": 19.3, "unit": "%"}, {"measurement": "percentage of cells in S phase", "setting": "[1]; 5% FCS 21 hours, 10 μg/ml", "result": 11.3, "unit": "%"}, {"measurement": "G1 (cell cycle arrest assay)", "setting": "[1]", "result": "<5", "unit": "µg"}, {"measurement": "tumor growth inhibition", "setting": "[4]; 1 mg/kg i.p. b.i.d., 20 days", "result": 74.1, "unit": "%"}, {"measurement": "tumor growth inhibition", "setting": "[4]; continuous delivery via Alzet mini-pump, 1 mg/kg over 24 hours", "result": 70.1, "unit": "%"}]}, {"molecule": "B3", "values": [{"measurement": "G1 (cell cycle arrest assay)", "setting": "[1]", "result": 10, "unit": "µg"}, {"measurement": "apoptosis of PC-3 cells", "setting": "[5]", "result": "not observed"}]}, {"molecule": "B4", "values": [{"measurement": "apoptosis of PC-3 cells", "setting": "[5]", "result": "no significant effect"}]}, {"molecule": "B5", "values": [{"measurement": "tumor growth inhibition", "setting": "[4]; 20 mg/kg b.i.d., bolus injection", "result": "no significant tumor growth inhibition"}, {"measurement": "inhibition of protein synthesis", "setting": "[2]; 4.5 μM, 24 hours of serum stimulation, rapamycin 100 ng/ml", "result": "did not inhibit protein synthesis"}, {"measurement": "IC50, inhibition of cell cycle progression", "setting": "[3]", "result": "no activity"}]}]}
